Results published in US20240343803A1 (SHANDONG SIMCERE BIOPHARMACEUTICAL, published 2024).

What was measured:
[1] = target: T1, cynomolgus monkey PVRIG (Novoprotein, Cat NO. C09B) (cynomolgus monkey, UniProt A0A2K5WVV8 41-171); assay: ELISA, coated cynomolgus monkey PVRIG
T1 construct: Bought reagent; also called cynomolgus monkey PVRIG protein
T1 sequence: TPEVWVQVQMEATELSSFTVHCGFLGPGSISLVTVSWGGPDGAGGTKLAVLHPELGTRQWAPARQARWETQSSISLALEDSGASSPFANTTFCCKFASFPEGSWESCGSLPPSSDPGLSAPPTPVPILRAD

[2] = target: T2, human PVRIG-his (AcroBiosystems, Cat NO. PVG-H52H4) (human, UniProt Q6DKI7 41-171, limits assumed); assay: ELISA, coated human PVRIG-his; binding ELISA, Table 23
T2 construct: Bought reagent; also called human PVRIG protein
T2 sequence (looked up): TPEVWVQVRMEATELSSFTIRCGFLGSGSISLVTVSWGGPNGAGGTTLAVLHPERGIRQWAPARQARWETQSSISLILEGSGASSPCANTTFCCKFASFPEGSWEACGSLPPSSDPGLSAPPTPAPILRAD
Method: The ELISA plate was pre-coated with 100 μL/well of 0.5 μg/mL human PVRIG-his (AcroBiosystems, Cat NO. PVG-H52H4) or cynomolgus monkey PVRIG (Novoprotein, Cat NO. C09B). […] A HRP substrate, TMB (Thermo, Cat NO. 34029) was added into wells after washing the plate again for color development. After adding a termination solution to terminate the reaction, the absorbance value was read by a microplate reader (MD i3×). An antibody binding curve was drawn with concentration of antibodies as the abscissa and the corresponding OD value as the ordinate. The EC50 value was calculated by using a Four Parameter Logistic Fit (GraphPadPrism9). The smaller the EC50 value, the stronger the ability of the antibodies binds to human or cynomolgus monkey PVRIG. The positive control antibodies are COM701-hIgG1 (Patent No.:US20180244774A1), COM701-hIgG4 (patent No.: US20180244774A1) and SRF813-hIgG1 (Patent No.:US20200040081A1); and the negative control antibodies are anti-HA HcAb-hIgG1 (Chengdu NB Biolab, Cat NO. NBR022), anti-CD38 HcAb-hIgG1 (in-house) and anti-Fluorescein-hIgG1 (in house).

[3] = target: T3, human PVRIG on FlpinCHO-PVRIG cells (human, UniProt Q6DKI7 41-326); assay: FACS, FlpinCHO-PVRIG cells; AUC of MFI curve relative to COM701-hIgG1
T3 construct: whole, on cells
T3 sequence (looked up): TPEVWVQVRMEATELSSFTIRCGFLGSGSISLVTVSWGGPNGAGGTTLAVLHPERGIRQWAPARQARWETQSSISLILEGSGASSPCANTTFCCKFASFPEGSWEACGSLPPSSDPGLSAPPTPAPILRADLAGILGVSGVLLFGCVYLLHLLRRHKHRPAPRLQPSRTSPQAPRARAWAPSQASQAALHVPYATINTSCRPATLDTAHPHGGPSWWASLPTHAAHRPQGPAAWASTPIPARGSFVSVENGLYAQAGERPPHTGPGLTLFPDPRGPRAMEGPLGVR
Method: (§1) The Ham's F12 (Gibico, 21127-022) complete medium containing 10% FBS was then added to terminate the digestion and acquire cell suspension. After counting with a cell counter (Beckman Coulter, Vi-CELL), an appropriate amount of cell suspension was centrifuged at 350×g to remove the supernatant, washed twice with PBS, stained with Zombie violet (Biolegend, 423114) and incubated at room temperature for 20 minutes. After incubation, the cells were added with staining buffer (2% FBS+PBS) to stop staining, centrifuged at 350×g to remove the supernatant, washed twice and resuspended with staining buffer to a density of 2×10⁶ cells/mL. The cells were plated into a 96-well plate (50 μL of cell suspension per well) for further use. The antibodies were diluted from the highest concentration of 46 nM (two-fold concentration) with staining buffer by 3.3-fold serial dilution. The diluted antibodies were added to the well containing 50 μL of cell suspension. The plate was placed on a microplate shaker at 400 rpm for 1 minute to fully mix the antibodies and cells, and then incubated at 4° C. for 30 minutes. After the incubation, the cells were washed twice with staining buffer (200 μL per well) and centrifuged at 350×g for 5 minutes to discard the supernatant. The PE goat anti-human IgG Fc antibody (ebioscience, 12-4998-82) was diluted 250 times with staining buffer, added into the washed wells (100 μL per well), mixed well, and stained at 4° C. for 30 minutes. After staining, the cells were washed twice with staining buffer, finally resuspended with 200 μL staining buffer and analyzed by flow cytometry (BD, Canto II). The stronger the signal, the stronger the ability of the antibodies binds to PVRIG. An antibody binding curve was drawn with concentration of antibodies as the abscissa and the corresponding Mean Fluorescence Intensity (MFI) as the ordinate. The AUC value of the curve was calculated by using a Four Parameter Logistic Fit (GraphPadPrism9). The stronger the AUC value, the stronger the ability of the antibodies binds to FlpinCHO-PVRIG and FlpinCHO-cyno PVRIG. […] The binding activity of the antibodies was normalized to the positive control COM701-hIgG1 and SRF813-hIgG1.

[4] = target: T3, human PVRIG on FlpinCHO-PVRIG cells; assay: FACS, FlpinCHO-PVRIG cells; AUC of MFI curve relative to SRF813-hIgG1
Method: as §1

[5] = target: T4, cynomolgus monkey PVRIG on FlpinCHO-cyno PVRIG cells (cynomolgus monkey, UniProt A0A2K5WVV8 41-322); assay: FACS, FlpinCHO-cyno PVRIG cells; AUC of MFI curve relative to COM701-hIgG1
T4 construct: whole, on cells
T4 sequence: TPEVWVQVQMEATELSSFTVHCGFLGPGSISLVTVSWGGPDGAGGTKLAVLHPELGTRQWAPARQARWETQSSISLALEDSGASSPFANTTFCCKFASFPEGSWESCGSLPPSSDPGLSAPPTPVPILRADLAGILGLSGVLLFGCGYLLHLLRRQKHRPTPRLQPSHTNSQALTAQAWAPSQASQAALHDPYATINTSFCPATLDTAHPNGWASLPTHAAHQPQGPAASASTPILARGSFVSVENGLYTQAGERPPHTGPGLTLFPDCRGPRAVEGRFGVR
Method: as §1

[6] = target: T4, cynomolgus monkey PVRIG on …; assay: FACS, FlpinCHO-cyno PVRIG cells; AUC of MFI curve relative to SRF813-hIgG1
Method: as §1

EC50 [1]: 28.9 pM | EC50 [2]: 121 pM | % AUC to COM701-hIgG1 [3]: 117% | % AUC to SRF813-hIgG1 [4]: 143% | % AUC to COM701-hIgG1 [5]: 41.3% | % AUC to SRF813-hIgG1 [6]: 48.6%
B1: PVRIG-A11 (Fc fusion)
chain: QLQLVESGGGLVQPGGSLRLSCAASGFTDDYYAIGWFRQAPGKEREGVSCISGSGGSTNYEDSVKGRFAISRDNAKNMVYLQMNDLKPEDTAVYYCAADPFWSAPCTGHNDRYFDVWGQGTLVTVSS
notes: Alpaca VHH joined to human IgG1 Fc (VHH-hinge-CH2-CH3); not shown: human IgG1 hinge-CH2-CH3
